Source: patent publication US20150164995A1 (Sanofi, published 2015)
Like-named read-outs stand apart in the source and are kept apart here. Square brackets hold non-standard residues; d marks the D form. Ends that are not written are not given here. Nle = CCCC[C@H](N)C(=O)O; Aib = CC(C)(N)C(=O)O

B1: SEQ ID NO: 11 (peptide)
peptide: Y[Aib]EGTFTSDLSIQLEKRAA[Aib]EFIEWLKAGGPSSGAPPPSK-NH2
modifications: N-terminus assumed
SMILES: CC[C@H](C)[C@H](NC(=O)[C@H](CO)NC(=O)[C@H](CC(C)C)NC(=O)[C@H](CC(=O)O)NC(=O)[C@H](CO)NC(=O)[C@@H](NC(=O)[C@H](Cc1ccccc1)NC(=O)[C@@H](NC(=O)CNC(=O)[C@H](CCC(=O)O)NC(=O)C(C)(C)NC(=O)[C@@H](N)Cc1ccc(O)cc1)[C@@H](C)O)[C@@H](C)O)C(=O)N[C@@H](CCC(N)=O)C(=O)N[C@@H](CC(C)C)C(=O)N[C@@H](CCC(=O)O)C(=O)N[C@@H](CCCCN)C(=O)N[C@@H](CCCNC(=N)N)C(=O)N[C@@H](C)C(=O)N[C@@H](C)C(=O)NC(C)(C)C(=O)N[C@@H](CCC(=O)O)C(=O)N[C@@H](Cc1ccccc1)C(=O)N[C@H](C(=O)N[C@@H](CCC(=O)O)C(=O)N[C@@H](Cc1c[nH]c2ccccc12)C(=O)N[C@@H](CC(C)C)C(=O)N[C@@H](CCCCN)C(=O)N[C@@H](C)C(=O)NCC(=O)NCC(=O)N1CCC[C@H]1C(=O)N[C@@H](CO)C(=O)N[C@@H](CO)C(=O)NCC(=O)N[C@@H](C)C(=O)N1CCC[C@H]1C(=O)N1CCC[C@H]1C(=O)N1CCC[C@H]1C(=O)N[C@@H](CO)C(=O)N[C@@H](CCCCN)C(N)=O)[C@@H](C)CC
B2: SEQ ID NO: 8 (peptide)
peptide: Y[Aib]EGTFTSDLSIQMEKRAA[Aib]EFIEWLKAGGPSSGAPPPS-NH2
B3: SEQ ID NO: 12 (peptide)
peptide: Y[Aib]EGTFTSDLSIQLDKRAA[Aib]EFIEWLKAGGPSSGAPPPS-NH2
modifications: N-terminus assumed
SMILES: CC[C@H](C)[C@H](NC(=O)[C@H](CO)NC(=O)[C@H](CC(C)C)NC(=O)[C@H](CC(=O)O)NC(=O)[C@H](CO)NC(=O)[C@@H](NC(=O)[C@H](Cc1ccccc1)NC(=O)[C@@H](NC(=O)CNC(=O)[C@H](CCC(=O)O)NC(=O)C(C)(C)NC(=O)[C@@H](N)Cc1ccc(O)cc1)[C@@H](C)O)[C@@H](C)O)C(=O)N[C@@H](CCC(N)=O)C(=O)N[C@@H](CC(C)C)C(=O)N[C@@H](CC(=O)O)C(=O)N[C@@H](CCCCN)C(=O)N[C@@H](CCCNC(=N)N)C(=O)N[C@@H](C)C(=O)N[C@@H](C)C(=O)NC(C)(C)C(=O)N[C@@H](CCC(=O)O)C(=O)N[C@@H](Cc1ccccc1)C(=O)N[C@H](C(=O)N[C@@H](CCC(=O)O)C(=O)N[C@@H](Cc1c[nH]c2ccccc12)C(=O)N[C@@H](CC(C)C)C(=O)N[C@@H](CCCCN)C(=O)N[C@@H](C)C(=O)NCC(=O)NCC(=O)N1CCC[C@H]1C(=O)N[C@@H](CO)C(=O)N[C@@H](CO)C(=O)NCC(=O)N[C@@H](C)C(=O)N1CCC[C@H]1C(=O)N1CCC[C@H]1C(=O)N1CCC[C@H]1C(=O)N[C@@H](CO)C(N)=O)[C@@H](C)CC
B4: Tyr(1)Ile(12)-GLP1 (peptide)
peptide: YAEGTFTSDVSIYLEGQAAKEFIAWLVKGR
modifications: ends and bridges not checked
B5: SEQ ID NO: 9 (peptide)
peptide: Y[Aib]EGTFTSDLSIQLEKRAA[Aib]EFIEWLKAGGPSSGAPPPS-NH2
modifications: N-terminus assumed
SMILES: CC[C@H](C)[C@H](NC(=O)[C@H](CO)NC(=O)[C@H](CC(C)C)NC(=O)[C@H](CC(=O)O)NC(=O)[C@H](CO)NC(=O)[C@@H](NC(=O)[C@H](Cc1ccccc1)NC(=O)[C@@H](NC(=O)CNC(=O)[C@H](CCC(=O)O)NC(=O)C(C)(C)NC(=O)[C@@H](N)Cc1ccc(O)cc1)[C@@H](C)O)[C@@H](C)O)C(=O)N[C@@H](CCC(N)=O)C(=O)N[C@@H](CC(C)C)C(=O)N[C@@H](CCC(=O)O)C(=O)N[C@@H](CCCCN)C(=O)N[C@@H](CCCNC(=N)N)C(=O)N[C@@H](C)C(=O)N[C@@H](C)C(=O)NC(C)(C)C(=O)N[C@@H](CCC(=O)O)C(=O)N[C@@H](Cc1ccccc1)C(=O)N[C@H](C(=O)N[C@@H](CCC(=O)O)C(=O)N[C@@H](Cc1c[nH]c2ccccc12)C(=O)N[C@@H](CC(C)C)C(=O)N[C@@H](CCCCN)C(=O)N[C@@H](C)C(=O)NCC(=O)NCC(=O)N1CCC[C@H]1C(=O)N[C@@H](CO)C(=O)N[C@@H](CO)C(=O)NCC(=O)N[C@@H](C)C(=O)N1CCC[C@H]1C(=O)N1CCC[C@H]1C(=O)N1CCC[C@H]1C(=O)N[C@@H](CO)C(N)=O)[C@@H](C)CC
B6: SEQ ID NO: 10 (peptide)
peptide: Y[Aib]EGTFTSDLSIQ[Nle]EKRAA[Aib]EFIEWLKAGGPSSGAPPPS-NH2
modifications: N-terminus assumed
SMILES: CCCC[C@H](NC(=O)[C@H](CCC(N)=O)NC(=O)[C@@H](NC(=O)[C@H](CO)NC(=O)[C@H](CC(C)C)NC(=O)[C@H](CC(=O)O)NC(=O)[C@H](CO)NC(=O)[C@@H](NC(=O)[C@H](Cc1ccccc1)NC(=O)[C@@H](NC(=O)CNC(=O)[C@H](CCC(=O)O)NC(=O)C(C)(C)NC(=O)[C@@H](N)Cc1ccc(O)cc1)[C@@H](C)O)[C@@H](C)O)[C@@H](C)CC)C(=O)N[C@@H](CCC(=O)O)C(=O)N[C@@H](CCCCN)C(=O)N[C@@H](CCCNC(=N)N)C(=O)N[C@@H](C)C(=O)N[C@@H](C)C(=O)NC(C)(C)C(=O)N[C@@H](CCC(=O)O)C(=O)N[C@@H](Cc1ccccc1)C(=O)N[C@H](C(=O)N[C@@H](CCC(=O)O)C(=O)N[C@@H](Cc1c[nH]c2ccccc12)C(=O)N[C@@H](CC(C)C)C(=O)N[C@@H](CCCCN)C(=O)N[C@@H](C)C(=O)NCC(=O)NCC(=O)N1CCC[C@H]1C(=O)N[C@@H](CO)C(=O)N[C@@H](CO)C(=O)NCC(=O)N[C@@H](C)C(=O)N1CCC[C@H]1C(=O)N1CCC[C@H]1C(=O)N1CCC[C@H]1C(=O)N[C@@H](CO)C(N)=O)[C@@H](C)CC

Columns and labels:
Assay in all cases: cell-based or functional assay
[1] = molecular target: human GLP-1 receptor (human) (UniProt P43220)
human GLP-1 receptor (human), sequence (P43220 24-463): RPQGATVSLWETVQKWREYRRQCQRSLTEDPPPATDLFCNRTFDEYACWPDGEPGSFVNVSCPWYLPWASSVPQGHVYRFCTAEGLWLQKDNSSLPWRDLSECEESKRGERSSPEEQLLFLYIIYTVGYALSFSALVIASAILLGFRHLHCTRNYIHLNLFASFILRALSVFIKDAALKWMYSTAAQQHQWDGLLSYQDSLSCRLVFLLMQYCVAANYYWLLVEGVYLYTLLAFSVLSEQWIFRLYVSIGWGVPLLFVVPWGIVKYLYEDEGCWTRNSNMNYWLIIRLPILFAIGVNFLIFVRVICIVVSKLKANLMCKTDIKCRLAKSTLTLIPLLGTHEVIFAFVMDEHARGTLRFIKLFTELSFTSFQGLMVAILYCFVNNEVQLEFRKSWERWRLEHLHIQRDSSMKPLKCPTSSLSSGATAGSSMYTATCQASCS

[2] = molecular target: human glucagon receptor (human) (UniProt P47871)
human glucagon receptor (human), sequence (P47871 26-477): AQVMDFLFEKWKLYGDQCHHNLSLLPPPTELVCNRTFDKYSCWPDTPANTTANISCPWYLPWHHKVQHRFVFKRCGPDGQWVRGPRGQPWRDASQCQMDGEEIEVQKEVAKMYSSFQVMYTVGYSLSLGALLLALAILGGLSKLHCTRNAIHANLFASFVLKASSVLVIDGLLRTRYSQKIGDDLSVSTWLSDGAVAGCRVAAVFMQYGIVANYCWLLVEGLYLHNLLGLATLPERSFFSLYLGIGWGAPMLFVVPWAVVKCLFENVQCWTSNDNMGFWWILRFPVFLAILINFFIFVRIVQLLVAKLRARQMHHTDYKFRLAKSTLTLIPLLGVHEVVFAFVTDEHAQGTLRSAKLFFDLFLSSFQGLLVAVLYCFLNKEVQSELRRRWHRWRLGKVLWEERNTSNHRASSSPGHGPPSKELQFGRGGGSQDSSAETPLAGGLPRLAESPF

[3] = molecular target: human glucagon receptor (human, UniProt P47871 26-477)
human glucagon receptor, sequence (P47871 26-477): as above

[4] = molecular target: T1, human GLP-1 receptor (human, UniProt P43220 24-463)
[5] = molecular target: T2, human GIP receptor (human, UniProt P48546 22-466)
T2 sequence (looked up): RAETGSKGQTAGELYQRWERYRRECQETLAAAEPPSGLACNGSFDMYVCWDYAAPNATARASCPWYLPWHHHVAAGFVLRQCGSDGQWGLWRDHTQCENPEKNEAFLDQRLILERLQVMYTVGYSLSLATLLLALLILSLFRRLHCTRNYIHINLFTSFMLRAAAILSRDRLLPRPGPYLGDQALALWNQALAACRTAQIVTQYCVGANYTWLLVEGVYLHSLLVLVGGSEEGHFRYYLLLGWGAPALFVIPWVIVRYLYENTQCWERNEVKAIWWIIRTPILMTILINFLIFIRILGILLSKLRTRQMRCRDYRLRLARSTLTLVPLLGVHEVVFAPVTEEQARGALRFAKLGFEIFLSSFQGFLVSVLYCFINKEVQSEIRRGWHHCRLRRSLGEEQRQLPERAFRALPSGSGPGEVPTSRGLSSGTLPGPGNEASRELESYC

[6] = molecular target: T1, human GLP-1 receptor; remark: listed apart in the source
Target sequence in this assay (P43220 24-463): as the sequence (P43220 24-463) above

[7] = molecular target: T2, human GIP receptor; remark: listed apart in the source

Molecule	EC50 hGLP-1 R [pM] (cAMP formation, HTRF, HEK-293 cells) [1]	EC50 hGlucagon R [pM] (cAMP formation, HTRF, HEK-293 cells) [2]	EC50 hGLUC R [pM] (cAMP formation, HTRF, HEK-293 cells) [3]	EC50 hGLP-1 R [pM] (cAMP formation, HTRF, HEK-293 cells) [4]	EC50 hGlP R [pM] (cAMP formation, HTRF, HEK-293 cells) [5]	EC50 hGLP-1 R [pM] (cAMP formation, HTRF, HEK-293 cells) [6]	EC50 hGlP R [pM] (cAMP formation, HTRF, HEK-293 cells) [7]
exendin-4 (peptide)	0.4	> 1e+07	–	–	–	–	–
B1	–	–	129000	1.6	14.1	–	–
B2	–	–	> 1e+06	1.5	14.4	–	–
B3	–	–	17900	2.6	17.9	–	–
B4	–	–	–	–	–	5	3660
B5	–	–	155000	1.2	7.9	–	–
B6	–	–	193000	1.4	12.4	–	–
